The text below walks through data of publication PMC13335422 (The Journal of Experimental Medicine, 2026).

Substitutions are numbered along the chain they refer to.

In assay [1] the target is Recombinant Bet v1 (major birch pollen allergen Bet v1) (birch) (UniProt P15494). The assay can be described thus: ELISA. A general note: ELISA stands for enzyme-linked immunosorbent assay.
The target is the same in assay [2]. The assay can be described thus: BLI. In general terms: BLI is a label-free optical method that tracks binding on a fibre tip over time.
Assay [3] concerns the target T1, Recombinant Bet v1 (major birch pollen allergen Bet v1) (birch, biotin (biotinylated rBet v1 in the flow cytometry and in the IgE-blocking ELISA; site not stated)).
T1 construct: Bet v1, major allergen of birch pollen (PR-10 family); codon-optimized synthetic gene in pET29b; PDB 4A81 was the Bet v1 model fitted into the cryo-EM map; One molecule for the plain and the biotinylated protein: same construct; also called rBet v1; biotinylated rBet v1
T1 chain: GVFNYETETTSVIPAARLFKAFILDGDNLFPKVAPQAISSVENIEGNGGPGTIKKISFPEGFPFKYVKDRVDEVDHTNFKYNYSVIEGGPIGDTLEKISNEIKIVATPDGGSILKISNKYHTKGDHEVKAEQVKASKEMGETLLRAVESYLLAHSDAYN
The experiment in a line: cryo-EM structure; Bet v1 complexed with threefold molar excess of Fab08 and Fab10; reconstruction at 4.8 Å, Cα positioning. The note with it: both partners purified.

Assay [4] deals with T1, Recombinant Bet v1 (major birch pollen …). The assay can be described thus: flow cytometry on cells; transduced primary human T cells stained with biotinylated rBet v1 (1 μg/ml) and streptavidin-PE, 30 min at 4°C; mCherry reporter. The note with it: one partner purified. For orientation: Flow cytometry measures light scatter and fluorescence of single cells or particles in a stream.

One may read the EC50 as the concentration giving half of the maximal effect. In general, Kd refers to the constant that tells how readily two partners part at equilibrium.

With “eB20 (human anti-Bet v1 antibody from an IgE clone) (from UniProt P01857)”, the concentration giving a half-maximal response (EC50) in assay [1] is 8.89 ng/mL. As for “mAb 11 (human anti-Bet v1 IgG monoclonal antibody) (from UniProt P01857)”, the Kd in assay [2] was 3.61 nM. In assay [1], the EC50 was determined as 4.26 ng/mL. For the molecule “mAb 10 (human anti-Bet v1 IgG monoclonal antibody) (from UniProt P01857)”, in assay [1], the concentration for a half-maximal effect (EC50) came to 7.26 ng/mL.

B1: Fab08 (Fab of mAb 8) (Fab, V domains shown)
VH: EVQLVQSGAEVKKPGDSLKISCKGSGYSFSNFWIGWVRQMPGKGLELMGIVYPGDSDTKYRPSFLGQVTISADKSIATAFLQWSRLTASDTAIYYCARLGATYAGADFWGQGTLVTVSS
VL: DIQMTQSPSSLSASVGDRVTITCRASQTIVTYLNWYQQKPGKAPKLLIYAASNLQSGVPSRFSGSGSGTDFTLTISSLQPEDFAIYYCQQSYAAFGEGTKVEIK
notes: heavy variable domain as the heavy chain of m3 (mAb 8, IGHV5-51); constant part of the Fab heavy chain; as the light chain of m3 (mAb 8, IGKV1-39); The production of the Fabs is not described
Consider B1, for which the binding result in assay [3] was “binds”.

B2: CAlleR 8 (anti-Bet v1 chimeric allergen receptor with the scFv of mAb 8, CD28 and CD3ζ domains) (other)
VH: B1 VH
VL: B1 VL
notes: scFv derived from mAb 8 (variable domains as in m3; GenBank within PZ143166-PZ143179); CD28 hinge, transmembrane and intracellular (costimulatory) domains; CD3ζ intracellular signaling domain; Second-generation CAR design in pCDH-EF1-FHC (Addgene 64874), as in Muller et al., 2021a; The murine CAlleR 8 (mouse CD28 and CD3ζ domains) is another construct and has no row; source: primary human T …
Turning to B2, the binding result in assay [4] is “binds”.

B3: CAlleR 5 (anti-Bet v1 chimeric allergen receptor with the scFv of mAb 5, CD28 and CD3ζ domains) (other)
VH: EVQLVQSGAEVKKPGESLNISCNGSGYNFTKYWIAWVRQMPGKGLEWMGIIYPGDSDTKYRPSFQGQVTISADKSITTAYLQWSRLKVSDTAIYYCARLGATYGGADYWGQGTLVTVSS
VL: B1 VL with R24Q, T28S, T31N, N53S, I85T, K104T
notes: scFv derived from mAb 5 (variable domains as in m2; GenBank within PZ143166-PZ143179); CD28 hinge, transmembrane and intracellular (costimulatory) domains; CD3ζ intracellular signaling domain; Second-generation CAR design in pCDH-EF1-FHC (Addgene 64874), as in Muller et al., 2021a; source: primary human T cells, lentivirally transduced, on cells
Take B3: in assay [4], the binding result is given as “binds”.

B4: Fab10 (Fab of mAb 10) (Fab, V domains shown)
VH: EVQLVESGGGLVQPGGSLRLSCTASGFTFSSYMTHWVRQAPGKGLEWVSHISGDGTNTTYADTVKGRFFTSRDNVKNTLFLQMDSLRAEDTAVYFCARGSWYTTGWHRNYYFGMDVWGQGTTVTVSS
VL: DIVMTQSPLSLPVTPGEPASISCRSSQSLLHSNGYNYLDWYLQKPGRSPQLLIYLGSHRASGVPDRFSGDGSGTDFTLKISRVEAEDVGVYYCMQVLQTPSFGGGTKVEIK
notes: heavy variable domain as the heavy chain of m4 (mAb 10); constant part of the Fab heavy chain; as the light chain of m4 (mAb 10); The production of the Fabs is not described
For the molecule B4, the binding result in assay [3] is “binds”.

B5: CAlleR 10 (anti-Bet v1 chimeric allergen receptor with the scFv of mAb 10, CD28 and CD3ζ domains) (other)
VH: B4 VH
VL: B4 VL
notes: scFv derived from mAb 10 (variable domains as in m4; GenBank within PZ143166-PZ143179); CD28 hinge, transmembrane and intracellular (costimulatory) domains; CD3ζ intracellular signaling domain; Second-generation CAR design in pCDH-EF1-FHC (Addgene 64874), as in Muller et al., 2021a; source: primary human T cells, lentivirally transduced, on cells
With B5, the binding result in assay [4] is given as “binds”.

B6: CAlleR 11 (anti-Bet v1 chimeric allergen receptor with the scFv of mAb 11, CD28 and CD3ζ domains) (other)
VH: EVELLESGGGLVQPGGSLRLSCVGSGFTFPSYAMTWVRQAPGKGLEWVSAISGGGENSGGSTYYADSVKGRFTISRDNSKNTLFLQMSSLRAEDTAVYYCTREPVSWAFGSGTEYFDYWGQGTLVTVSS
VL: QSVLTQPPSASGTPGQRVTISCSGSSSNIGSNTVTWYHQLPGTAPKLLIYNNHRRPSGVPDRFSGSKSGTAASLGISGLQSEDEAAYYCATWDDSLKGWVFGGGTKLTVL
notes: scFv derived from mAb 11 (variable domains as in m5; GenBank within PZ143166-PZ143179); CD28 hinge, transmembrane and intracellular (costimulatory) domains; CD3ζ intracellular signaling domain; Second-generation CAR design in pCDH-EF1-FHC (Addgene 64874), as in Muller et al., 2021a; source: primary human T cells, lentivirally transduced, on cells
Regarding B6, the binding result in assay [4] is reported as “binds”.
